Assay [1] has as its target human collagen type I (acid soluble, extracted from placenta, Sigma C7774) (human) (UniProt P02452). As to the kind of experiment: dried collagen assay.
The target is the same in assay [2]. In words: dried collagen assay, 5 uM each.
Assay [3] addresses rat collagen (acid soluble, type I, rat tail, Upstate 08-115) (rat) (UniProt P02454). In words: dried collagen assay, 5 uM each.

Bridge positions count the residues as written; N and C are the ends. Ends that are not written are not given here. GdT = GdDTPA-thiourea

Sequence of rat collagen (acid soluble, type I, rat tail, Upstate 08-115) (rat) (P02454 152-1207, chain 1 of 2): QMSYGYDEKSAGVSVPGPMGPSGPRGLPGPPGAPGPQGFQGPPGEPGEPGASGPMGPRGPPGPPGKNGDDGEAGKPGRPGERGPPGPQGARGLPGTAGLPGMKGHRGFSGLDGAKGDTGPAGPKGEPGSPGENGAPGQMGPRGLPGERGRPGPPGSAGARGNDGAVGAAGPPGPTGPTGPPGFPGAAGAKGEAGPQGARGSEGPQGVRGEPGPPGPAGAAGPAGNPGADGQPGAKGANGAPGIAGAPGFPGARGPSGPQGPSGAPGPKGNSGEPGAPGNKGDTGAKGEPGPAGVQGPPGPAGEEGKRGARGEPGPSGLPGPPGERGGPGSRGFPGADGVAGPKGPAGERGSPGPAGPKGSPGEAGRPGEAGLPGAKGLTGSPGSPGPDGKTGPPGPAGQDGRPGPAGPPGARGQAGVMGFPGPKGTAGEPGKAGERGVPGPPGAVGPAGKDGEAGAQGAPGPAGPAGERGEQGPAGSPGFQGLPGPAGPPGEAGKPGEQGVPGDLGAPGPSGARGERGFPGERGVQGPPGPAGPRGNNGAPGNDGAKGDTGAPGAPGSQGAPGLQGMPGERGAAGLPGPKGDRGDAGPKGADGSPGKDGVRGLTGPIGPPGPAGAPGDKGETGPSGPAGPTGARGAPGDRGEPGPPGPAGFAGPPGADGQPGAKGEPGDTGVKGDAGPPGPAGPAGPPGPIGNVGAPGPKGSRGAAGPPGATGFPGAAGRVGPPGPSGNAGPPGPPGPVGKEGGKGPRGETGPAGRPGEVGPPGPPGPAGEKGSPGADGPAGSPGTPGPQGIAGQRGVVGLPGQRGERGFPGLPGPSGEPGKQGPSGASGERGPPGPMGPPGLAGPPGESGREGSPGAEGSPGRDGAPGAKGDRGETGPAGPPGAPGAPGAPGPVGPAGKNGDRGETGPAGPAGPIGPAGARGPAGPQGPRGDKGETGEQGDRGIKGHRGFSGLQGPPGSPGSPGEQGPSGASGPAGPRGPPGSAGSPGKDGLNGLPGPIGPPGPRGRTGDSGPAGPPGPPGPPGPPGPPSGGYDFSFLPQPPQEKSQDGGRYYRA
Sequence of rat collagen (acid soluble, type I, rat tail, Upstate 08-115) (rat) (P02466 86-1125, chain 2 of 2, further chain): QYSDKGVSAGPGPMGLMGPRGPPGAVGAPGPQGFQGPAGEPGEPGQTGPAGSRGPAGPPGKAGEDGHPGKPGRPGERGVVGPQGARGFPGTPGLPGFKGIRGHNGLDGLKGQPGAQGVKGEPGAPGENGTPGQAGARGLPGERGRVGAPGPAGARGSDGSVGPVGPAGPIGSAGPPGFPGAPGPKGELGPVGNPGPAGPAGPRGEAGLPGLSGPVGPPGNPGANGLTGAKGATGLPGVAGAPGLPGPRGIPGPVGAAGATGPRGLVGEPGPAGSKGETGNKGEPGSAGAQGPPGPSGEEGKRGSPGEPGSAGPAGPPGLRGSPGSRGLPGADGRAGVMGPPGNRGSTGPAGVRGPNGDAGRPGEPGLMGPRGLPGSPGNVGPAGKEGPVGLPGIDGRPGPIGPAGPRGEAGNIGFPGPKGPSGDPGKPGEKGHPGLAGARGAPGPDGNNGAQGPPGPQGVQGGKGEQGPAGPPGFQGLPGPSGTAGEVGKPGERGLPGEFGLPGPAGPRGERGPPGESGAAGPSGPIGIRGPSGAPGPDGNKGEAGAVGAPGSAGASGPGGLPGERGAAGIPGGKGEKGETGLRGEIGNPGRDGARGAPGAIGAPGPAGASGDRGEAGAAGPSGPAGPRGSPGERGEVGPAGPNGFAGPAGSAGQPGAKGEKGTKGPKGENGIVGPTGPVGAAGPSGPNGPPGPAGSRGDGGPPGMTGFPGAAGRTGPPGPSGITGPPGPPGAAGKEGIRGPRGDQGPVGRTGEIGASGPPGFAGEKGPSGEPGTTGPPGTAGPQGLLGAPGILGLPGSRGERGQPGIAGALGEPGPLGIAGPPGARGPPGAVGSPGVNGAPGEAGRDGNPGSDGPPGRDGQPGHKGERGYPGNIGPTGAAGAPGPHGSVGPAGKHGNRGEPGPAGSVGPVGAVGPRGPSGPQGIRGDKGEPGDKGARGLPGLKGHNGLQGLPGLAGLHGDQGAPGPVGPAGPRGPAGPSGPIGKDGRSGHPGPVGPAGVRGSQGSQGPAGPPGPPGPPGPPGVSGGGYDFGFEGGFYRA
Sequence of human collagen type I (acid soluble, extracted from placenta, Sigma C7774) (human) (P02452 162-1218 limits assumed, chain 1 of 2): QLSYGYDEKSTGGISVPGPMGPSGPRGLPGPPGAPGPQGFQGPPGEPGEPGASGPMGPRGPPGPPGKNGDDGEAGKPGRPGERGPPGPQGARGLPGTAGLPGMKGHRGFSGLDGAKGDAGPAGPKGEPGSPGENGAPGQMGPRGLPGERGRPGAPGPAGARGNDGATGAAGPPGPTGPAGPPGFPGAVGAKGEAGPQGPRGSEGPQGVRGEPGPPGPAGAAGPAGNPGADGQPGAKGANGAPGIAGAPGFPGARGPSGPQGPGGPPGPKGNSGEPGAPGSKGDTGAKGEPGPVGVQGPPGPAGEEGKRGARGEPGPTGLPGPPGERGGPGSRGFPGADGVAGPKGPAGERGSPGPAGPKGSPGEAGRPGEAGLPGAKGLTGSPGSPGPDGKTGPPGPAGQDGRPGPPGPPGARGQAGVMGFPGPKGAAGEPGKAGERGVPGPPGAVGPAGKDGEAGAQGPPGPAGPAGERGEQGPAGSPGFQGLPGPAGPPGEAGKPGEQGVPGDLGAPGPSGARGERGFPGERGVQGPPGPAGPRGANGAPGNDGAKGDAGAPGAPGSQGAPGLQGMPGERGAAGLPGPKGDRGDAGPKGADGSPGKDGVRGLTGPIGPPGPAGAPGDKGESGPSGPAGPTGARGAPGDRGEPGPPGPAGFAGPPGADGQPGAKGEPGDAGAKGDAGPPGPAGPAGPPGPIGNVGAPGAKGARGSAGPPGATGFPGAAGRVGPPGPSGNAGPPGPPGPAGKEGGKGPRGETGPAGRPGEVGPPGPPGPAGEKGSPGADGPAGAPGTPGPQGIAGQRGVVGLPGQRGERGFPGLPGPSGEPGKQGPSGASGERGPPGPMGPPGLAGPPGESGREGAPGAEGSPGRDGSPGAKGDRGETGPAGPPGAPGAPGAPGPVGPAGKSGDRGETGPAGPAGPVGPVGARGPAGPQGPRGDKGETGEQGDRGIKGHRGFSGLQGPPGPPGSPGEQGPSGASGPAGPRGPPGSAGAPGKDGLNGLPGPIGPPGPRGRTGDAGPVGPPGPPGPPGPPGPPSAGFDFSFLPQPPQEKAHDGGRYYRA
Sequence of human collagen type I (acid soluble, extracted from placenta, Sigma C7774) (human) (P08123 80-1119 limits assumed, chain 2 of 2, further chain): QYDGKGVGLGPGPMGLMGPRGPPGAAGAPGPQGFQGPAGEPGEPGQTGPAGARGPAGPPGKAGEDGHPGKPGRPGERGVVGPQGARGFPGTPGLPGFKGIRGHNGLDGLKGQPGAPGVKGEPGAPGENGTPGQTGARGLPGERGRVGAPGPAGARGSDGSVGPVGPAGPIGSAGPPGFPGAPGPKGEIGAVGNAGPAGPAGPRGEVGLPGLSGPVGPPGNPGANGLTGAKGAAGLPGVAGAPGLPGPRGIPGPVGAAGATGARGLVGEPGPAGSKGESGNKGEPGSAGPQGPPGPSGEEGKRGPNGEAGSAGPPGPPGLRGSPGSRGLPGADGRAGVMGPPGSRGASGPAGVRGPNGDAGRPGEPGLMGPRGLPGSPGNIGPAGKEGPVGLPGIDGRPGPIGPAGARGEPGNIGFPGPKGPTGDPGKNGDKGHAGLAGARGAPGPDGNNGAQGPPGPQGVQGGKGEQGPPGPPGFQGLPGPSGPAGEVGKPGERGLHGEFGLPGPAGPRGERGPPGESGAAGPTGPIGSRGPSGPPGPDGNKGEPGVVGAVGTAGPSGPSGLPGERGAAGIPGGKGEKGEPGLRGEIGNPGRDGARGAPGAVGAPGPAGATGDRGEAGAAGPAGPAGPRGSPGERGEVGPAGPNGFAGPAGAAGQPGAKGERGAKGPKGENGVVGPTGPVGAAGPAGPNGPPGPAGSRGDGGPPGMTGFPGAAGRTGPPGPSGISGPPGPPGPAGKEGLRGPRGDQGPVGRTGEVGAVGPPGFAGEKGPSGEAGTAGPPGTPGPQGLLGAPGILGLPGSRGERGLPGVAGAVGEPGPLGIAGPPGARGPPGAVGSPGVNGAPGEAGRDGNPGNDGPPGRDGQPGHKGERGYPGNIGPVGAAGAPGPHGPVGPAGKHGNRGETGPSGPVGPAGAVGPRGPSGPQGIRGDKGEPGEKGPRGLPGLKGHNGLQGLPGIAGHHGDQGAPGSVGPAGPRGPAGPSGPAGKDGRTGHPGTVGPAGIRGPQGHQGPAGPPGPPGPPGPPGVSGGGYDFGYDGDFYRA

B1: SEQ ID NO: 63 (peptide)
peptide: NWYCSQALDNWSCKLR
modifications: disulfide 4-13; also: C-terminus likely amidated (Rink amide resin)
B1 returned a Dried Human Collagen Binding in assay [1] of 8%.

B2: SEQ ID NO: 67 (peptide)
peptide: GWSCHSMDMQWHCDFS
modifications: disulfide 4-13 (inferred); also: C-terminus likely amidated (Rink amide resin)
B2 had a Dried Human Collagen Binding in assay [1] of 5%.

B3: SEQ ID NO: 3 (peptide)
peptide: PWWCHEMPSMCFGF
modifications: disulfide 4-11; also: C-terminus probably amidated (Rink amide resin)
In assay [1], B3 showed a Dried Human Collagen Binding of 2%.

B4: Compound ID 991 (peptide)
chain: GKWHCYKYFPHHYCLYG
On to B4, for which the Human binding in assay [2] was 23%. The molecule also had a Rat binding in assay [3] of 11%.

B5: Compound ID 985 (peptide)
chain: GKWHCYTYFPHHYCLYFK
B5 came in with a Human binding in assay [2] of 56%. Moreover, the Rat binding in assay [3] is 68%.

B6: Compound ID 1017 (peptide)
chain: KKLWHCYTYFPHHYCVYG
B6: the Human binding in assay [2] came to 25%. This molecule showed a Rat binding in assay [3] of 18%.

B7: SEQ ID NO: 36 (peptide)
peptide: SWSCGGDHNAWKCQYS
modifications: disulfide 4-13; also: C-terminus probably amidated (Rink amide resin)
In turn, B7 returned a Dried Human Collagen Binding in assay [1] of 7%.

B8: SEQ ID NO: 68 (peptide)
peptide: SWHCFLENHHWMCSDH
modifications: disulfide 4-13 (inferred); also: C-terminus likely amidated (Rink amide resin)
Consider B8, for which the Dried Human Collagen Binding in assay [1] is 5%.

B9: Compound ID 996 (peptide)
chain: GKWHCYTYFPHHYCLYGK
As to B9, in assay [2], the Human binding was found to be 76%. This molecule also yielded a Rat binding in assay [3] of 67%.

B10: Compound ID 1018 (peptide)
chain: KKYWHCYTYFPHHYCVYG
In turn, B10 showed a Human binding in assay [2] of 53%. The molecule further gave a Rat binding in assay [3] of 55%.

B11: SEQ ID NO: 99 (peptide)
peptide: AKKCWYNDGGHLRCRTL
modifications: disulfide 4-14; not fully specified (C-terminus)
Molecule B11 came in with a Dried Human Collagen Binding in assay [1] of 3%.

B12: SEQ ID NO: 78 (peptide)
peptide: TWACDLDEYGGWQCYTG
modifications: disulfide 4-14 (inferred); also: C-terminal amide likely (Rink amide resin)
With B12, the Dried Human Collagen Binding in assay [1] amounted to 8%.

B13: SEQ ID NO: 8 (peptide)
peptide: GWQCFGASDWHCTWV
modifications: disulfide 4-12; not fully specified
Turning to B13, in assay [1], the Dried Human Collagen Binding was 9%.

B14: SEQ ID NO: 81 (peptide)
peptide: QWFCEMDEYGKWNCGMM
modifications: disulfide 4-14; not fully specified (C-terminus)
Molecule B14 gave a Dried Human Collagen Binding in assay [1] of 3%.

B15: SEQ ID NO: 108 (peptide)
peptide: YHACYQAGCYIY
modifications: disulfide 4-9; not fully specified (C-terminus)
With B15, the % Collagen Binding in assay [1] was 5%.

B16: Compound ID 1016 (peptide)
chain: KKAWHCYTYFPHHYCVYG
B16: in assay [2], the Human binding was 48%. This molecule also showed a Rat binding in assay [3] of 50%.

B17: Compound ID 1015 (peptide)
chain: KKGWHCYTYFPHHYCTYG
Take B17: the Human binding in assay [2] stood at 29%. For the same molecule, in assay [3], the Rat binding was found to be 30%.

B18: Compound ID 1013 (peptide)
chain: GKWHCYTKFPHHYCKYY
In the case of B18, the Human binding in assay [2] was 81%. The molecule further gave a Rat binding in assay [3] of 88%.

B19: Compound ID 994 (peptide)
peptide: GdT-GQWHCYTYFPHHYCLYGK
modifications: disulfide 5-14 (inferred); not fully specified (residue 18, C-terminus)
The molecule B19 displayed a Human binding in assay [2] of 86%. This molecule also returned a Rat binding in assay [3] of 84%.

B20: SEQ ID NO: 5 (peptide)
peptide: NWKCWGVVKWECIWA
modifications: disulfide 4-12; also: C-terminus presumably amidated (Rink amide resin)
As for B20, the Dried Human Collagen Binding in assay [1] turned out to be 24%.

B21: Compound ID 1011 (peptide)
chain: GKWHCYTKFPYHYCVYY
B21: the Human binding in assay [2] is 94%. In assay [3], this molecule had a Rat binding of 93%.

B22: SEQ ID NO: 64 (peptide)
peptide: TWICSHNDKGWTCGDQ
modifications: disulfide 4-13 (inferred); also: C-terminus likely amidated (Rink amide resin)
In assay [1], B22 registered a Dried Human Collagen Binding of 8%.

B23: Compound ID 995 (peptide)
chain: GKWHCYTKFPHHYCLYGK
B23 came in with a Human binding in assay [2] of 51%. For the same molecule, the Rat binding in assay [3] was determined as 42%.

B24: Compound ID 984 (peptide)
chain: GHKWHCTTYFPHHYCLYG
On to B24, for which the Human binding in assay [2] came out at 67%. Also, the Rat binding in assay [3] turned out to be 69%.

B25: Compound ID 989 (peptide)
chain: GKWHCYTYFPHHYCLYVK
B25: the Human binding in assay [2] amounted to 67%. This molecule also showed a Rat binding in assay [3] of 74%.

B26: SEQ ID NO: 82 (peptide)
peptide: LWTCSMDRNYDWVCGEK
modifications: disulfide 4-14; not fully specified (C-terminus)
B26: in assay [1], the Dried Human Collagen Binding was found to be 3%.

B27: Compound ID 990 (peptide)
chain: GKWYCTTYFPHHYCLYG
On to B27, for which, in assay [2], the Human binding was found to be 59%. The Rat binding in assay [3] turned out to be 62%.

B28: SEQ ID NO: 66 (peptide)
peptide: RWSCVLDADGWVCSDN
modifications: disulfide 4-13 (inferred); also: C-terminus likely amidated (Rink amide resin)
In assay [1], B28 came in with a Dried Human Collagen Binding of 6%.

B29: SEQ ID NO: 9 (peptide)
peptide: TWNCYGVTEWHCYMI
modifications: disulfide 4-12; not fully specified (C-terminus)
The molecule B29 returned a Dried Human Collagen Binding in assay [1] of 7%.

B30: SEQ ID NO: 35 (peptide)
peptide: YWVCGGDHQSWHCSHP
modifications: disulfide 4-13; also: C-terminus probably amidated (Rink amide resin)
As to B30, in assay [1], the Dried Human Collagen Binding came out at 8%.

B31: SEQ ID NO: 6 (peptide)
peptide: TWQCSGNQKWSCEWF
modifications: disulfide 4-12; also: C-terminus probably amidated (Rink amide resin)
For B31, in assay [1], the Dried Human Collagen Binding was 20%.

B32: SEQ ID NO: 41 (peptide)
peptide: VWACRGGTTNWHCDL
modifications: disulfide 4-13; also: C-terminus probably amidated (Rink amide resin)
As for B32, the Dried Human Collagen Binding in assay [1] was 1%.

B33: SEQ ID NO: 1 (peptide)
peptide: YHACYQAGCWIW
modifications: disulfide 4-9; not fully specified (C-terminus)
As for B33, the Dried Human Collagen Binding in assay [1] is 56%.

B34: SEQ ID NO: 65 (peptide)
peptide: KWECVHTKGEWYCETK
modifications: disulfide 4-13 (inferred); also: C-terminus likely amidated (Rink amide resin)
In turn, B34 came in with a Dried Human Collagen Binding in assay [1] of 7%.

B35: SEQ ID NO: 37 (peptide)
peptide: LWNCHGTDANWKCVLN
modifications: disulfide 4-13; also: C-terminus probably amidated (Rink amide resin)
In turn, B35 returned a Dried Human Collagen Binding in assay [1] of 7%.

B36: Compound ID 993 (peptide)
peptide: GdT-GQWHCYTKFPHHYCLYGK
modifications: disulfide 5-14 (inferred); not fully specified (residues 8, 18, C-terminus)
B36: the Human binding in assay [2] amounted to 75%. Besides, the Rat binding in assay [3] was found to be 70%.

B37: SEQ ID NO: 79 (peptide)
peptide: FWTCELDFRQSWYCYDK
modifications: disulfide 4-14 (inferred); not fully specified
For the molecule B37, in assay [1], the Dried Human Collagen Binding was 8%.

B38: Compound ID 1010 (peptide)
chain: GKWHCYTKFPHHYCVYYY
In the case of B38, the Human binding in assay [2] was 92%. The molecule further showed a Rat binding in assay [3] of 89%.

B39: SEQ ID NO: 39 (peptide)
peptide: GWQCSGDASVWNCDWI
modifications: disulfide 4-13; also: C-terminus probably amidated (Rink amide resin)
Turning to B39, the Dried Human Collagen Binding in assay [1] is 6%.

B40: SEQ ID NO: 38 (peptide)
peptide: GWSCHGDAADWPCQWS
modifications: disulfide 4-13; also: C-terminus probably amidated (Rink amide resin)
In assay [1], B40 yielded a Dried Human Collagen Binding of 6%.

B41: Compound ID NO. 1014 (peptide)
chain: KKWHCYTYFPHHYCVYG
modifications: disulfide 5-14 (inferred); also: coupled to ITC-Gd3 (tris-Gd-DOTAGA isothiocyanate), site not given here
B41 returned a Human binding in assay [2] of 72%. In assay [3], this molecule registered a Rat binding of 61%.

(Values after patent publication US20080058636A1, “METHODS OF MYOCARDIAL IMAGING” (Epix Pharmaceuticals, Inc., priority 2005, published 2008).)
